Reference: the DeepSol protein solubility set

Assay: soluble on expression in E. coli; label from the status in PepcDB or PDB records

| Sequence | soluble on expression in E. coli |
| --- | --- |
| MANRKYFGTDGVRGKVGAYPITPDFALKLGWAAGKVLASQGSKMVLIGKDTRISGYMLESALEAGLAAAGLSAAFTGPMPTPAIAYLTRTFRAEAGIVISASHNPYYDNGIKFFSAKGTKLPDEIEEAIEAMLEQPMDCVESAELGKASRINDAAGRYIEFCKGTFPAHLGLEGYKIVVDCANGATYHIAPNVLRELGAEVIEIGTDPNGLNINEKCGATDVTALQAKVVETKADVGLAYDGDGDRIMMVDHLGNKVDGDQILFIIAREALRSGQLKGGVVGTLMSNMSLEIALKMLGVPFLRANVGDRYVLEKMVENDWTLGGENSGHIIIADKNTTGDGIVASLAVLAAMAQHKLSLNELASAVKLFPQVLINVRFAGGENPLESDAVKSVAAEVEKRLEGKGRILLRKSGTEPLIRVMVECQDAELAQQCAEEIAEAVKKIN | not soluble |
| MANRMILNETAWFGRGAVDALTDEVTRRGYHKALIVTDKTLVQCGVVDKVTSRMDAAGLAWEIYAGVIPNPTISVVQEGLKVFTQSGADYLIAIGGGSPQDTCKAIGIISNNPEFADVRSLEGLSPTRKPSVPIMAIPTTAGTAAEVTINYVITDEEKRRKFVCVDPHDIPQAAFIDADMMDGMPPALKAATGVDALTHAIEGYITRAAWALTDALHIKAIEIIAGALRGAVAGEKEAGEAMALGQYVAGMGFSNVGLGLVHGMAHPLGAFYNTPHGVANAILLPHVMRFNAGSTNEKFRDIARAMGVKVEGLSLEEARNAAVEAVFTLNRDVGIPLHLRDVGVRKEDIPALAQAAFDDVCTGGNPREASLADIVELYHTAW | not soluble |
| MAPAPEVVSWAEAVEQDNAPHIQEGADGTRTETAFTEVDGVRWKVVTQFKVINKRVPKVVADRKKWVKFGSCKGEPAGPQVATTYVAEEVDMQFTRNRAGEQILDVQEDKQTAKTTSREHCRHCKGNDHWSTHCPYKVMYQLDEEADADKDTEKDRMAMGMRPDGRQIDRNRSDENTCRVTNLPQEMNEDELRDLFGKIGRVIRIFIARDKVTGLPKGFAFVTFESRDDAARAIAELNDIRMYHMVLKVEWTRPSN | not soluble |
| MAPTTVIADNNCNEESSNSFEMEIEAESAILEQIQNKMAKNLESAAYVPPTEEEQKAIDAKSVFIGNVDFNSTIEEVEEHFKGCGHIVRTTIPKDKFTKKQKNFAYIEFDDSSSIENALVMNGSLFRSRPIVVTAKRTNIPGMGHGVRGSSRGTFGRGRGAARGAPGRQQTVVVKYVYVNGPNRGGRGGRGRRFNPY | soluble |
| MAQDIKNEEVEEVQEEEVVKTAEETTPEKSELDLANERADEFENKYLRAHAEMQNIQRRANEERQNLQRYRSQDLAKAILPSLDNLERALAVEGLTDDVKKGLGMVQESLIHALKE | not soluble |
| MAQFIDRRLNGKKKSTVNRQRFIRRHKDQIKRAVSDAVNQRSVTNTESGESISIPKGDISEPVFHQGQGGIRERVLPGNDQFIKGDKIERPQGGNGGGGAGDGDASADGEGQDDFIFQISKDEYLDILFEELELPNLEKNQVQKITEWETHRAGYQTAGVPSNIDIVRSLQQSLARRTAMTAGKKRLLSELEQELETIKNSEPSQPLAVRKMQEQIEELRERIKHVPYIDSFDLRYKNYERTPIPSSQAVMFCLMDVSGSMDQATKDIAKRFYVLLYLFLTRTYENVEVVFIRHHTQAKEVNEHDFFYSQETGGTMVSSALKLMRDIVAERFPANEWNIYAAQASDGDNWADDSPKCKELLTSSILPTCQYYSYIEITKRHHQTLWTEYDKLAQGFDNFAMKNIRSVEDIYPIFRELFQKQLALEHHHHHH | not soluble |
| MAQFIDRRLNGKNKSAVNRQRFLKRHKEQIKESVADAVNRRSITNTETGEDVSIPHKDINEPIFHQGKGGVRERVHPGNDQFITGDKIERPKGGGQGSGSGEGNASPDGEGQDEFVFQISKDEYLDILFEDLELPNLEKNQIAKITEWKTHRAGFQTAGIPSNISVIRSLQQSLARRTAMTAGKKRLLKELEDELTRIKNIEPAQQLEENRLKKEIEELRKKIENVPFIDTFDLRFKNYEKRPVPSSQAVMFCLMDVSGSMDQATKDIAKRFYVLLYLFLTRTYENVDVVFIRHHTQAKEVDEHEFFYSQETGGTIVSSALKLMDEIVKERYPVGQWNIYAAQASDGDNWADDSPRCRDLLVNKLLPNCQYYSYIEITRRSHQTLWHEYEKLTDEFPNFAMKNIRSVEDIFPVFRELFQKETALEHHHHHH | soluble |
| MAQIVVIGAGLGGLPAAYELRHYLGKAHQVILISEFPQFTFVPGLVQVGLGHIPLDHMQLNVPMLAKRHGFKWVQGKVQKIDPLQKRIYTHETLNYDYLIIASGAELANDLVPGLGIYTHSICTPSHVLEARTAWETFCQQPGDLVVGAAPGTGCFGPAYEYVLLAEADLRRRGIRDQVKITYITPEPYIGHLGIANMAHSQTLTEALMNKRGIATLTNAQIVNISSDHIFLADGQSFGFAYSMILPAFRGAKFVKASGLGNERGFLPVLPTMRHRDYPEIYGVGVSVHLGQINDTQVSIGTPKSGQMTEAMAMVAAHNIAVELGSIAKPLQVPTLEALCFAEYGDTGIAYIAAPVLPDRLTGKRRYSYAIKGIWVNWAKAAFEKYFLAKMRLGVGLPWFEKLGLRLLFGLSMSRPAMAEDIVQPVNVLEHHHHHH | soluble |
| MAQPPDGRLTYMTQHQRVMEWLNSIDRPNGIHFLDMDAKSLLVLMNTLDRKTRSNLEKSCKILLSISRSDKPHLQQLCLHFTTTWNHDQFAEITAQFSPEHSFHSIFMSKKKSPNWITGGWSIDRQKNITSGIFQPEKLRLSATFVERTSRYIEYWLRNFQIDTLRIKVENLIPGKENSIQQSNYTGEIPPLKLKKLIIHGANNIRFINNWLDNLVPNAIDPLDDKKKIIDVEFLDVGKLDQIFHHSLMTTGKVNLTFNRVSTHFTRKTLNFVNSPMINIVARQVPSEAVNSFLKRWCRGEIIEDFQYLHLMETTQWPSQQMHMMDALSGLRYQIVDLKTDVKLRILEKQKEFPKPAQIFQITGPRPGFCAHFGNQFIFEIPKTEDIQHILVNPPISQNTFDEYERQKNRIYMELFRKRLIRLFN | not soluble |
| MAQPSTTYKFELNLTDLDRNVYESVKQTIARHPSETEERMAVRLLAYALWYNENLSFGRGLSDVDEPALWEKSLDDRVLHWIEVGQPDADRLTWCSRRTERTSLLAYGSLRVWEGKVVSAVKNLKNLSIAAVPQEVLETLATDMPRSIKWDVMISEGTVFVTDDRGQHEVQLQWLLGERG | not soluble |
| MAQRFTDEVAIVTGSSNGIGRATAILLASEGAKVTITGRNAERLEESRQALLKVGVPSGHINSVVADVTTGAGQDVLIDSTLKKFGKINILINNAGALIVDPEGKTNTSTGVETCLKTFQLNFQSVVEMTQKIRPHLANTHGEIVNVSSVGAGPAAENRFPYYSAAKAALDQYSRNTAIDLIPDGIRVNIVQPGFVATGFTTAASGMSPDASAKMYEGIGANTSCIPAGYCGRPEHLASVIAFLADRKASEYIVGQTIIADGGTTLVRGRNVALATRRAE | not soluble |
| MAQRRESLNMGEFAEEAIIVEEVAAPKRVNHFIEANTQEVTLQHLQQDCIIPSFASMEETISHQSFIGAVVDAAKDYFHGEQFDMPEIRISHPINGRIPSALGKKASELTDEEKTLFYQRMCFCFEIPSIVHDEYGNRLALSIGGVRAYNEINLYSKKSVERFKIFIGFRNRVCSNLMLTTDGLQDKIEVLSIQELYAAALNLFHAYNPSKDLHLLRTLGQMSISTSEFCQIIGRMRLYQALTPNQQKRLPRLLLGDSQINAACRAFVSDANFKSTGDSITGWQLLNLLNGSVKSSYIDNFLERNLNCTEFVQGIQRAKLGDSEYAWFLG | not soluble |
| MAQSEISKREKGRALITVANNVAGFNLWKRLVEEGYDVDAILPSEDKYNLLLSELVSRKNKKYDFIVNTVDRHDYAVVTNKMLKWLYPTEKIIFISSDLVYEPRPGKKKENDNAYPPTMEGKYFLEAESALDVNSDLVLRVGLVTGRCVPNILTNTINLSRANMSIDLSGAVVRNFISNADLSEYIIRLLDKNGIYNASAKSMTPRDFALELCAKINVNCKLRRTTDDKVFDYSMDTTKIELTTGYYTKDIFANISSGLYLLG | soluble |
| MAQTERRDAPELPDFSLLKRLARDQLIFLLEQLPGKKDLFIDADLMSPLDRIANVTILKQHEVDKLYKVELKPIVSSSDQLCFLIRPRIQTVKWISDLVNSDKVAGRFRRYKIIFTPQKFYACETVLEEQGVYGDVTTDEWNFYILPLDDDILSLELPEFFRDNFLEGDQRWVTTGGGALHLLQSVYGSFSKVYGIGRCAKMVYESWRELMEEGEQRTRQPEFAKVFLIDRDVDFVTPLCSQVVYEGLVDDIFRIKCSSVEFGPDVTSSDKSIKVMLNSQDKVFNEIRNEHFSNVFGFLSQKAKNLQTAYDKRRGMDIQQMKAFVADELKGLKQEHRLLSLHIGASESIMKKKTKQDFQELLKTEHSLLEGFEIRECIAYIEEHINRQVSMIDSLRLLCLLSITENGLLSKDYRSLKAQYLQSYGIEHLLTFANLRQLGLLEEQQTGETLTVMESKVGKLVNDKTAGKLTDAFSSLAKKSNFRALSKRLALVPKSGEEYDLRVPRDMAYIFSGAYIPLSCKLIEQVLERDGWTGLEEVTRMLNGQDFAVTGGSSSSEARNKSNGQRIILVMFLGGCTYSEISALRFLGKERGCRFIVLTTAITNSGRLLEALLDKHV | soluble |
| MAQTIQLANHSEMTIIDNDLHVDVIGNQAHFSFSGLHNKTFTDREVLFEMPFLYEHEANVIGDGFQMLAQTSGTITHPIEIGRCPDNIPPYRVYSQHAPKRYYNYLVIEDSAGYTLFGFTTCRRFAGYFDIQQRNGQWILTAAIDGEHTQVADWEHNQ | not soluble |
| MARCSVCGAPAVAYIRYQRRYLCRDHYLEFVESKVERAIMRHRLVGKGDRVLAAVSGGKDSSTLLAVLSRLSRRIGFHVVALYIHLGIYEYSEKSREASIRLASQLDVPLIVFDLNEVLGAGIPELAKASKRPPCSVCGMVKRYVINAAAVELGVDAVALGHNADDIAVYNLKSFLNQDLEAISKLGVKTESIPGVAVGRVRPLYYVYEKESFLYSLLAGLPFLHEEC | not soluble |
| MARDRNLFKMLVNRLLDRLARLPVGAELGSEGELAAELQASRTTVRAVLTHLAEAGLLSWEGRRKVVLRAPSPSDRFDEGETRPRQELVEEPFLAWVLQGDLPPGTLLHESDLARRLGVPVATVREFLIRFEPFGLIEKQPNRHWVLKGFTRAFAEEMFAVREMFERHALRGLLAATAPGGPLRADLESLRAEHEALSAGPEEELTAFPALDARFHRLLCRAAHNRFILDFSRTISIIVHFHYRWNKRDELRRNRAALNEHLAIVEAVLAGDAPRAAAALDAHLATAYRTLMTSVTWADA | not soluble |
| MARFIAQLLLLASCVAAGQAVTAFLGERVTLTSYWRRVSLGPEIEVSWFKLGPGEEQVLIGRMHHDVIFIEWPFRGFFDIHRSANTFFLVVTAANISHDGNYLCRMKLGETEVTKQEHLSVVKPLTLSVHSERSQFPDFSVLTVTCTVNAFPHPHVQWLMPEGVEPAPTAANGGVMKEKDGSLSVAVDLSLPKPWHLPVTCVGKNDKEEAHGVYVSGYLSQ | soluble |
| MARKKTITKEQILTAAYEVVATEGFSKFTARNIANKMKCSTQPIYLEFKNMDDLRDALFQKIHKYLAKEVFPVKHTGNTIVDLALNYIHFATSESKLYRALYLEEYGGGKKMQEFSYHYFTEAVKADPEYANLNDVQIDSLHMGTWVVATGVAALMTSGIIHPSEEQIIHLMKDSIEAILERDEPIDIDL | soluble |
| MARLARFWDSLENENLFDIVPQPPKSTVTRFHQQWLSSLANARDDELQTILYAKPLLPTPESIVQLPDEEYYGAKKISVGYR | not soluble |
| MARNRLTESEMNEALRALDGWQKVDGREAITRSFKFKDFSTAFGFMAQAALYAEKLDHHPEWFNAYNRVDVTLATHSENGVTELDIKMARKMNAIAG | soluble |
| MARPIFSQEIDPYSQEVPKDVAISPSSKFDIYVEAPGEAPFEEADSPAMEYDRELAHHYSHKQLDFLEACSEKPSSKCGNEVFKNMLDETVPITDECCRDILKIGKDCHLGLVKLIFATYEYKNKASKGIPKSKQTWNECVFRVGSKIGAPVSFEQ | soluble |
